Data on two proteins can be found in the PETadex activity labels.

The labels stand for the following.
B1: unnamed (protein)
chain: MNFPRASRLMQAAVLGGLMAVSAAATAQTNPYARGPNPTAASLEASAGPFTVRSFTVSRPSGYGAGTVYYPTNAGGTVGAIAIVPGYTARQSSIKWWGPRLASHGFVVITIDTNSTLDQPSSRSSQQMAALRQVASLNGTSSSPIYGKVDTARMGVMGHSMGGGGSLISAANNPSLKAAAPQAPWDSSTNFSSVTVPTLIFACENDSIAPVNSSALPIYDSMSRNAKQFLEINGGSHFCANSGNSNQALIGKKGVAWMKRFMDNDTRYSTFACENPNSTRVSDFRTANCS
B2: unnamed (protein)
chain: MSMTASAYALAQSSPYAKGPDPTTSSLEAATGSFSTRTTTVSRLSASGFGGGTIYYPTASGSYGAIAISPGFTAYQSSISWLGTRLASRGFVVITIDTITTSDQPDSRGRQLKAALDKVVSLSRTAGNVLYGKVDANRLAVAGHSMGGGGTLAAARDNPSLKAAVPLAPWHTTKFFSTIRVPTLIIGGESDTIAPVASHSIPFYTSSLSSIAKGYMELNNASHFFPQTSTYYPLVGKYMISWFKRFVDEDTRYSPFLCGAPHQSDVANFLRVSDYRENCPY

Substrate in the first data set: BHET
Assay: not given
To be noted: 50 °C; part of the chain shown.
B1: the Km turned out to be 1610 µM, the kcat was 540 s⁻¹ and the kcat/Km amounted to 335000 M⁻¹ s⁻¹.

Substrate in another data set: BHET
In words: Proxy for plastic degradation [Released monomer concentration (HPLC/LC-MS) (BHET)]. As to conditions: pH 7.
B2: the “Proxy for plastic degradation” value turned out to be 1%.
